Measurements: article PMC9776037
pKd: −log10 of the molar value.

Experiments:
[1] = molecular target: α2 portion of the human α2δ1 protein (voltage-sensitive calcium channel subunit) (human); assay: localized surface plasmon resonance (LSPR); α2-functionalized sensors incubated overnight with full-length PLN (10 nM) or PLN Dm III-2 (100 nM), no GBP; Δλ_LSPR
[2] = molecular target: α2 portion of the human α2δ1 protein (voltage-sensitive calcium channel subunit) (human); assay: localized surface plasmon resonance (LSPR); α2 amide-coupled to gold triangular nanoprisms on glass; sensors incubated with 1 × 10^−16 to 1 × 10^−8 M PLN or PLN domains in PBS pH 7.2; Δλ_LSPR by UV-visible spectroscopy; KD from Hill-Langmuir fit with extrapolated Bmax

Δλ LSPR [1]	Substance	pKd [2]
12.7 nm	Perlecan domain III-2, cysteine-free globular region (laminin IV-A2) (domain or fragment)	10.10
–	Perlecan domain IV-1 (PLN Dm IV-1) (domain or fragment)	6.85
–	Perlecan domain IV-2 (PLN Dm IV-2) (domain or fragment)	3.37
–	Perlecan domain IV-3 (PLN Dm IV-3) (domain or fragment)	3.55
